Experimental findings from US20130018176A1, “METHODS OF PRODUCING HYBRIDOMAS AND MONOCLONAL ANTIBODIES AND ANTIBODIES PRODUCED THEREBY” (AMGEN INC., priority 2007, published 2013) are described below.

Experiment [1] is described as follows: Biological activity of hepcidin variants. Particulars: chemically synthesized hepcidin variants. The text has this:
A number of hepcidin variants were chemically synthesized according to the general procedure described in Example 4. A variant of hepcidin lacking the five amino acids at the N-terminus, designated “hepcidin 20” or “hepc20,” was synthesized. A linear hepcidin variant in which all eight cysteine residues were replaced with 2-aminobutyric acid, thus completely abolishing the ability to form disulfide bonds, was also synthesized. A C1-C8, C3-C6 hepcidin variant, in which cysteines 2, 4, 5 and 7 were substituted with 2-aminobutyric acid to allow formation of only two disulfide bonds (C1-C8 and C3-C6), was also synthesized.
Similar results were produced using hepcidin containing its native cysteine residues, when the molecule was in a fully-reduced state (i.e., no disulfide connectivity). This reduced material was not stable, however, and regained biological activity over time.

For experiment [2], the target named is T1, mature human hepcidin (SEQ ID NO: 9) (Homo sapiens, UniProt P81172).
T1 construct: made in house; host or cells: recombinant
T1 sequence (P81172 60-84): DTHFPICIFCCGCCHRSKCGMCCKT
As to the kind of experiment: Epitope specificity: antibody binding to immobilized hepcidin surface after pre-complex with hepcidin variants (BIAcore). The note with it: interpretation of Table 6. As to the method: (§1) The epitope specificity of anti-human hepcidin antibodies was evaluated by assessing ability of the antibodies to bind to mature human hepcidin (SEQ ID NO: 9) after pre-complex formation with different hepcidin variants.
(§2) Recombinant hepcidin was immobilized on a CM5 chip according to manufacturer's instructions at a flow rate 10 μL/min of running buffer (DPBS: Dulbecco's Phosphate Buffer Saline1X, GIBCO 14190, with 0.005% BIAcore surfactant P-20). The carboxylated matrix of the sensor chip was first activated with a 100 μL injection of 1:1 mixture of EDC (75 mg/mL N-ethyl-N-(dimethylamine-propyl)carbodiimide in water, from Biacore) and NHS (11.5 mg/mL N-hydroxysuccinimide in water, from Biacore). 180 μL of rhHepc (˜20 μg/ml in 10 mM Na-acetate pH4.0) was injected to immobilize onto the sensor chip at 30 μL/min. The excess reactive groups of the sensor chip were deactivated with an injection of 100 μL of ethanolamine (1.0M, from Biacore).
(§3) Forms of hepcidin used for the pre-complex were: correctly folded hepcidin as a positive control, the C1-C8, C3-C6 hepcidin variant (see Example 9), hepcidin 20 (N-terminally truncated, see Example 9) and linear hepcidin (Example 9). 1 nM solutions of antibody (2.41, 2.7, 43, and R9) were preincubated with 10 nM of each antigen at room temperature for several hours before run through the immobilized hepcidin surface. The binding signal obtained was proportional to the concentration of free antibody in solution at equilibrium.
(§4) Some antibodies require the five amino acids at the N-terminus of the molecule (e.g. Ab43 and to a lesser extent, R9).
Background: SPR reads the build-up and loss of mass on a sensor chip optically.

Experiment [3] concerns mature human hepcidin (SEQ ID NO: 9). The experiment is described as above. Particulars: interpretation of Table 6. The procedure: as §1, §2, §3, §4
The next experiment concerns the target T2, synthetic human hepcidin (Homo sapiens, UniProt P81172).
T2 construct: made in house; host or cells: chemical synthesis (Fmoc solid phase), oxidatively folded
T2 sequence (P81172 60-84 limits assumed): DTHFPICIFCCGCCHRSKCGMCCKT
Kind of experiment: Iron-responsive beta-lactamase assay in 293/Fpn/BLA cells. The note with it: 50 ng/mL synthetic human hepcidin, 2.5 ug/mL ferric citrate, read-out: EC50, decreased intracellular concentration of iron. The format is cell-based.

In experiment [4] the target is T3, human hepcidin (Homo sapiens, UniProt P81172).
T3 construct: The pro-region of the protein was enzymatically cleaved by incubation with Kex protease; made in house; host or cells: E. coli
T3 sequence (P81172 60-84 limits assumed): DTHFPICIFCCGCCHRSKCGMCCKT
As to the kind of experiment: Neutralization of injected human hepcidin in mice (hypoferremic response). The note with it: female C57BL/6 mice; for protection from the hypoferremic response (serum iron): serum iron two hours later. The format is in vivo. The procedure:
Activity of anti-human hepcidin antibodies was evaluated in vivo in mice that were administered human hepcidin in an amount sufficient to generate a hypoferremic response. On day 0, female C57BL/6 mice were injected subcutaneously with a murine monoclonal antibody (Ab2.7) directed against human hepcidin. Control mice received murine IgG1 as an isotypic control. At day 3, the mice received a single intraperitoneal injection of 25 μg E. coli-derived recombinant human Hepcidin (rhHepc). Serum iron levels were analyzed two hours later. […] Statistics represent ANOVA with a Dunnett's post-hoc test comparing all groups against the saline control.

The target of experiment [5] is T4, human hepcidin (Homo sapiens, UniProt P81172). Kind of experiment: Antibody neutralization of AAV-delivered human hepcidin in mice. The format is in vivo. Particulars: 1 mg/mouse. The procedure:
AAV-mediated human hepcidin expression in mice produces a microcytic, hypochromic anemia consistent with iron deprivation. The activity of anti-human hepcidin antibodies was evaluated in vivo in these mice overexpressing human hepcidin. Male C57B1/6 mice were injected with AAV (1.5×10^12 particles/mouse, I.V.) containing expression cassettes for either human hepcidin or beta-galactosidase (β-gal) as a negative control. The mice were left for two weeks to allow constitutive production of huHepc before being treated with 1 mg/mouse of Ab 2.7 or isotype control (muIgG1) at various dosing frequencies (1×, 2× and 4× per week) as shown in FIG. 12A. Blood was drawn on the fifth day for serum iron levels and determination of early red blood cell (reticulocyte) characteristics (reticulocyte count, reticulocyte hemoglobin content (CHr), and reticulocyte mean cell volume (Retic. MCV))
Statistical comparisons to β-gal injected animals with isotype control treatment were determined to look for restoration of normal red cell characteristics (ANOVA with Dunnett's post-hoc test).

In experiment [6] the target is T4, human hepcidin. As to the kind of experiment: Combination of anti-hepcidin antibody and darbepoetin alfa in viral hepcidin over-expression model. It is filed as in vivo. Particulars: AAV-human hepcidin mice. As to the method:
Male C57BL/6 mice were injected with AAV (5×10^12 particles/mouse, I.V.) containing genes coding for either human hepcidin or GFP as an expression control (n=5 per group). After allowing two weeks to establish constitutive protein expression, mice were bled to determine baseline hemoglobin (Hb) levels, then treated with Ab 2.7 (1 mg/mouse) or isotype control at various dose frequencies. On the day after the first dose, they were treated with darbepoietin alfa ([…], subcutaneous). A schematic of the dosing schedule appears in FIG. 15A.
Neutralization of hepcidin restores responsiveness to darbepoetin alfa. […] (See FIG. 15D.) Antibody dose and proximity of antibody dose to darbepoietin alfa treatment affected overall Hb response to anti-hepcidin antibody treatment, as shown in FIG. 15E (results varying from the control where p<0.01 by ANOVA with Dunnett's post-hoc test are noted with double asterisks).

Experiment [7] addresses T4, human hepcidin. Particulars: in vivo.
The target of experiment [8] is T5, E. coli-derived human hepcidin (Homo sapiens, UniProt P81172).
T5 construct: The pro-region of the protein was enzymatically cleaved by incubation with Kex protease; made in house; host or cells: E. coli
T5 sequence (P81172 60-84 limits assumed): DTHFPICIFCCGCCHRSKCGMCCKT
As to the kind of experiment: Biacore concurrent binding to hepcidin captured on antibody 1S1 surface (sandwich pairing). Particulars: 20 nM hepcidin on 1S1 surface, then 50 nM antibody. As to the method:
Using Biacore analysis, a surface coated with antibody 1S1 was tested for the concurrent binding of hepcidin and another antibody (FIG. 28). Immobilization of anti-Hepc antibody 1S1 to the sensor chip surface was performed according to manufacturer's instructions using a continuous flow of 0.005% P-20/PBS buffer. Briefly, carboxyl groups on the sensor chip surfaces were activated by injecting 60 μL of a mixture containing 0.2 M N-ethyl-N′-(dimethylaminopropyl)carbodiimide (EDC) and 0.05 M N-hydroxysuccinimide (NHS). This was followed by injecting 1S1 diluted in 10 mM acetate, pH 4.0 at concentrations between 20 μg/mL. Excess reactive groups on the surfaces were deactivated by injecting 60 μL of 1 M ethanolamine. Final immobilized levels were 5,000-6,000 resonance units (RU) for the Ab 1S1 surface. A blank, mock-coupled reference surface was also prepared on the sensor chip. 20 nM E. coli-derived human hepcidin was injected over and bound to the 1S1 antibody surface. Then 50 nM antibody 2.7, 23F11, 26F11, and 1S1 were injected over the hepcidin/1S1 surface. After the antibody injection, the surfaces were regenerated by injecting 30 μL 10 mM HCl pH 2.0.

Like-named read-outs stand apart in the source and are kept apart here.

Description for synthetic human hepcidin: The effect of anti-human hepcidin antibodies on this hepcidin-mediated iron sequestration was evaluated in vitro. […] These 293/Fpn/BLA cells, taken from a 70-80% confluent culture, were plated at 2.8×10^5 cells/mL in DMEM (Invitrogen Cat#11965) 5% FBS (Invitrogen Cat#10099-141) PSQ (Invitrogen Cat#10378-016), 90 uL/well (25,000 cells/well) in BioCoat Poly-D Lysine coated plates (Becton-Dickinson Cat#35-6640) and incubated at 37C with 5% CO2. At the end of the same day, a solution of assay medium (DMEM 5% FBS PSQ) with 100 ug/mL doxycycline was made, 10 uL/well of it added to the plate, and the plate incubated overnight or for at least 20 hours. […] Mixtures were added at 100 uL/well and incubated overnight at 37C, 5% CO2 in a cell culture incubator. Plates were then removed from the incubator and equilibrated to room temperature for 10 minutes before adding 20 uL/well of the prepared Invitrogen GeneBlazer CCF4 A/M development reagent (Invitrogen Kit# K1085) and incubating for 90 minutes in the dark. Development reagent was also added to 16 wells of a control assay plate without cells containing 100 uL assay medium (DMEM 5% FBS PSQ) and incubated for the same time. Blue & Green fluorescence signals were then read on an Envision Multilabel Reader (Perkin-Elmer Inc.) by exciting at 409 nm and reading emissions at 447 nm (blue) and 520 nm (green).

As for “hepc20: variant of hepcidin lacking the five amino acids at the N-terminus (SEQ ID NO: 96) (ICIFCCGCCHRSKCGMCCKT)”, the biological activity result in experiment [1] is on record as “severely diminished biological activity”.

B1: Antibody 2.7: murine human hepcidin-specific monoclonal antibody raised against KLH-conjugated hepcidin; CDRs SEQ ID NOs: 28-33 (antibody, V domains shown)
VH: QIQLVQSGPELKKPGETVKISCKASGYTFTTYGMSWVKQAPGKGLKWMGWINTYSGVPTYADDFKGRFAFSLETSASTAYLQINNLKNEDTATYFCGRDHYYGEVAYWGQGTLVTVSA
VL: DIVLTQSPASLAVSLGQRATISCRASESVDSYGNSFMHWYQQKPGQPPKLLIYRASNLESGIPARFSGSGSRTDFTLTINPVEADDVATYYCHQSNEEYTFGGGTKLEIK
B1: the “Binding to Solution Epitopes, Folded Hepcidin” value in [2] was “++++ (0% antibody binding to the hepcidin surface and therefore 100% inhibition by hepcidin in solution)”. Also, the “Binding to Solution Epitopes, C1-C8 C3-C6” value in experiment [3] was “++++ (0% antibody binding to the hepcidin surface and therefore 100% inhibition by hepcidin in solution)”. In addition, the “Binding to Solution Epitopes, Linear Hepcidin” value in [3] was “− (100% antibody binding to the hepcidin surface and therefore no inhibition by hepcidin in solution)”. In addition, in the experiment with synthetic human hepcidin, the EC50 worked out at 17 nM. The “hypoferremia (serum iron)” value with human hepcidin [4] (0.25 mg antibody s.c. day 0, 25 μg rhHepc i.p. day 3) was “reduction in hypoferremia”. Also, the “protection from the hypoferremic response (serum iron)” value is “statistically significant protection from the hypoferremic response” with human hepcidin [4] (0.5 mg antibody s.c. day 0, 25 μg rhHepc i.p. day 3) and “statistically significant protection from the hypoferremic response” with human hepcidin [4] (1 mg antibody s.c. day 0, 25 μg rhHepc i.p. day 3). Besides, in the experiment with human hepcidin [4] (lower doses (0.25 and 0.1 mg) of antibody), the “neutralization of hypoferremic response” value is given as “non-neutralizing doses”. Also, the Serum iron levels result with human hepcidin [5] (AAV-human hepcidin male C57B1/6 mice, 4× per week) is “restored to normal”. The “reticulocyte mean cell volume (Retic. MCV)” value in the experiment with human hepcidin [5] (AAV-human hepcidin mice, 1× dose) was “microcytosis is still present”; with human hepcidin [5] (AAV-human hepcidin mice, 2× dose) it was “restores normal volume”; with human hepcidin [5] (AAV-human hepcidin mice, 4× dose) it was “restores normal volume”. Further, the “reticulocyte hemoglobin content (CHr)” value is on record as “hypochromicity is still seen” with human hepcidin [5] (AAV-human hepcidin mice, 1× dosing); “normal” in the experiment with human hepcidin [5] (AAV-human hepcidin mice, 2× dosing); “normal” with human hepcidin [5] (AAV-human hepcidin mice, 4× dosing). Moreover, the “reticulocyte production (reticulocyte count)” value with human hepcidin [5] (AAV-human hepcidin mice, all dosing frequencies (1×, 2×, 4× per week)) is “increased reticulocyte production”. Besides, the “response to darbepoietin alfa (increase in Hb levels)” value with human hepcidin [6] (antibody 1 mg/mouse Monday-Wednesday-Friday dosing plus darbepoietin alfa) was “partial response”. The “response to darbepoietin alfa (Hb levels)” value with human hepcidin [6] (antibody 1 mg/mouse daily (Monday through Friday) plus darbepoietin alfa) is listed as “maximal response”; with human hepcidin [6] (two and three doses of antibody plus darbepoietin alfa) it was “partial response”; with human hepcidin [7], “did not respond”. In addition, the Hb levels result with human hepcidin [6] (antibody Monday-Wednesday-Friday dosing without darbepoietin alfa) was “no rise in Hb levels”. In addition, in the experiment with human hepcidin [7], the “responsiveness to darbepoietin alfa (hemoglobin levels)” value was “restored responsiveness”. Moreover, in experiment [8], the “ability to bind hepcidin concurrently with 1S1 (sandwich pair)” value is on record as “not able to form a sandwich pair with 1S1”.
